Source: US20240376151A1, “STAPLED PEPTIDES AND METHODS THEREOF” (FOG PHARMACEUTICALS, INC., priority 2022, published 2024)
Numbered stars: 1 amine (or outer) side, 2 acyl side, 3 side chain; on linkers, the order of the positions; unused ones are H or OH. Bridge positions count the residues as written; N and C are the ends. Ends that are not written are not given here. Phenylene(1,4-NHCOCH2)2 = O=C(C[*:1])Nc1ccc(NC(=O)C[*:2])cc1

Biological target: T1, CHIP (Homo sapiens, UniProt Q9UNE7)
T1 construct: N-term truncated CHIP (also known as STUB1, Uniprot ID: Q9UNE7, residues 23-303); made in house; host or cells: E. coli BL21 CodonPlus
T1 sequence (Q9UNE7 23-303): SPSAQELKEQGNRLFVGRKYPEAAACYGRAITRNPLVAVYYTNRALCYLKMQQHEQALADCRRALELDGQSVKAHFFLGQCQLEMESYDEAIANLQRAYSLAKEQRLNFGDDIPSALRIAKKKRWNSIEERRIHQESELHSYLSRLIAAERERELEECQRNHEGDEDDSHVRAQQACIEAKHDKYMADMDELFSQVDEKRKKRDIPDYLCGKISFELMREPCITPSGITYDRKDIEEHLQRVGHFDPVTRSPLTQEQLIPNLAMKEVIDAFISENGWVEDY
Assay: Naive Library Presenter Screening (phage, NGS), CHIP
Type: binding
Settings: for interaction data, BLANK: Blank = Media only
Procedure: To conduct phage library screening, previously described procedures were utilized in accordance with the present disclosure.
Next-generation sequencing was performed as described in accordance with the present disclosure.
Hit ID and Clustering is performed according to a described procedure in accordance with the present disclosure.

[1] = CHIP clusters (C83, C84), first column
[2] = CHIP clusters (C83, C84), second column
[3] = CHIP clusters (C83, C84), target concentration 10 nM
[4] = CHIP clusters (C83, C84), target concentration 30 nM
[5] = CHIP clusters (C83, C84), target concentration 100 nM
[6] = CHIP clusters (C83, C84), target concentration 300 nM
[7] = CHIP clusters (C83, C84), target concentration 1000 nM, first column
[8] = CHIP clusters (C83, C84), target concentration 1000 nM, second column
[9] = CHIP target concentration 10 nM
[10] = CHIP target concentration 30 nM
[11] = CHIP target concentration 100 nM
[12] = CHIP target concentration 300 nM
[13] = CHIP target concentration 1000 nM, first column
[14] = CHIP target concentration 1000 nM, second column

interaction data, BLANK [1]	interaction data, BLANK [2]	interaction data at Target Concentration 10 [3]	interaction data at Target Concentration 30 [4]	interaction data at Target Concentration 100 [5]	interaction data at Target Concentration 300 [6]	interaction data at Target Concentration 1000 [7]	interaction data at Target Concentration 1000 [8]	interaction data at Target Concentration 10 [9]	interaction data at Target Concentration 30 [10]	interaction data at Target Concentration 100 [11]	interaction data at Target Concentration 300 [12]	interaction data at Target Concentration 1000 [13]	interaction data at Target Concentration 1000 [14]	Sequence
1	0	2	3	210	321	597	726	–	–	–	–	–	–	DPAFWRCQFAAATCEHT (linker 7-14 via Phenylene(1,4-NHCOCH2)2 (inferred))
0	0	0	0	4	6	11	8	–	–	–	–	–	–	DPAFWSCQFAAATCSHL (linker 7-14 via Phenylene(1,4-NHCOCH2)2 (inferred))
1	0	8	3	160	86	331	323	–	–	–	–	–	–	DPAFWVCQYAAAMCQDV (linker 7-14 via Phenylene(1,4-NHCOCH2)2 (inferred))
0	0	0	0	19	15	23	24	–	–	–	–	–	–	DPAIIWCSQAASICTVD (linker 7-14 via Phenylene(1,4-NHCOCH2)2 (inferred))
0	0	0	0	0	31	28	27	–	–	–	–	–	–	DPAINMCYRAAQICDVD (linker 7-14 via Phenylene(1,4-NHCOCH2)2 (inferred))
0	0	0	0	3	14	26	10	–	–	–	–	–	–	DPALEECTQAAHICMVD (linker 7-14 via Phenylene(1,4-NHCOCH2)2 (inferred); not fully specified (C-terminus))
0	0	0	0	0	14	34	75	–	–	–	–	–	–	DPALWNCQYAAVMCTQL (linker 7-14 via Phenylene(1,4-NHCOCH2)2 (inferred); not fully specified (C-terminus))
0	0	0	0	0	15	7	29	–	–	–	–	–	–	DPAMWHCQYAAIMCNAN (DPAMWHCQYAAIMCNAN-NH2; linker 7-14 via Phenylene(1,4-NHCOCH2)2 (inferred))
0	0	0	0	3	15	6	49	–	–	–	–	–	–	DPANHICHYAAHICDVD (DPANHICHYAAHICDVD-NH2; linker 7-14 via Phenylene(1,4-NHCOCH2)2 (inferred))
0	0	0	0	0	47	25	57	–	–	–	–	–	–	DPAQDNCHYAAHICMVD (DPAQDNCHYAAHICMVD-NH2; linker 7-14 via Phenylene(1,4-NHCOCH2)2 (inferred))
0	0	0	0	0	48	79	17	–	–	–	–	–	–	DPAQYNCYFAANICTVD (DPAQYNCYFAANICTVD-NH2; linker 7-14 via Phenylene(1,4-NHCOCH2)2 (inferred))
0	0	0	0	0	15	18	8	–	–	–	–	–	–	DPASQWCQRAASICWID (DPASQWCQRAASICWID-NH2; linker 7-14 via Phenylene(1,4-NHCOCH2)2 (inferred))
0	0	0	0	0	22	9	39	–	–	–	–	–	–	DPAVHNCSQAASICDVD (linker 7-14 via Phenylene(1,4-NHCOCH2)2 (inferred); not fully specified (C-terminus))
0	0	0	0	0	21	16	22	–	–	–	–	–	–	DPAVRWCAAAAAICMVD (linker 7-14 via Phenylene(1,4-NHCOCH2)2 (inferred); not fully specified (C-terminus))
0	0	0	0	22	19	20	62	–	–	–	–	–	–	DPAYDVCHFAAHICWID (linker 7-14 via Phenylene(1,4-NHCOCH2)2 (inferred))
–	–	–	–	–	–	–	–	0	0	0	25	42	17	ICWAAWVSCS (linker 2-9 via Phenylene(1,4-NHCOCH2)2 (inferred))
–	–	–	–	–	–	–	–	1	2	13	16	21	20	ICYNARLECE (linker 2-9 via Phenylene(1,4-NHCOCH2)2 (inferred))
–	–	–	–	–	–	–	–	0	2	9	11	18	14	ICYNAWFECE (linker 2-9 via Phenylene(1,4-NHCOCH2)2 (inferred))
–	–	–	–	–	–	–	–	0	1	5	7	11	9	ICYNAWLECA (linker 2-9 via Phenylene(1,4-NHCOCH2)2 (inferred))
–	–	–	–	–	–	–	–	1	2	10	21	19	23	ICYNAWVECE (linker 2-9 via Phenylene(1,4-NHCOCH2)2 (inferred))
–	–	–	–	–	–	–	–	1	3	13	25	22	28	ICYSAWLECE (linker 2-9 via Phenylene(1,4-NHCOCH2)2 (inferred))
